In patent US20030092613A1, “Alpha7 nicotinic receptor peptides as ligands for beta amyloid peptides” (priority 2000, published 2003) one finds ACh rel % Inh @ 100 µM and Inh ACh rel IC50 data, which are given here for two substances.

The assay concerns the target β-amyloid1-42 (UniProt P05067). Briefly: cell-based or functional assay.

(Ac)FYEC (peptide) yielded an ACh rel % Inh @ 100 µM of 54% and an Inh ACh rel IC50 of less than 10 µM.
As to (Ac)YECC-amide (peptide), the ACh rel % Inh @ 100 µM was 62% and the Inh ACh rel IC50 was less than 10 µM.
